Two substances from patent US20080226675A1 can be followed below.

Assay [1] addresses Apolipoprotein B mRNA-editing enzyme-catalytic polypeptide-like 3G (A3G), wild type, cmyc-tagged (human) (UniProt Q9HC16). As to the kind of experiment: cell-based or functional assay.
Assay [2] addresses mutant A3G D128K, cmyc-tagged (human) (UniProt Q9HC16). The assay is described as follows: cell-based or functional assay.

In the case of “macaque simian immunodeficiency virus Vif (SIVmac Vif)”, the percent green fluorescent 293T cells after infection with D3GFP vector produced in the presence of SIVmac Vif in assay [1] came to 24%. Besides, the percent green fluorescent 293T cells after infection with D3GFPD128K vector produced in the presence of SIVmac Vif in assay [2] amounted to 26%.
Consider HIV-1 viral infectivity factor (Vif), for which, in assay [1], the infectivity of HIV-GFP produced from D3GFP-carrying 293T cells in the presence of HIV-1 Vif, percent of control is 89 % of control. For the same substance, in assay [2], the infectivity of HIV-GFP produced from D3GFPD128K-carrying 293T cells in the presence of HIV-1 Vif, percent of control is 1 % of control and the inhibition of HIV-GFP replication (GFP+ 293T cells by flow cytometry) by pD3GFPD128K in the presence of HIV-1 Vif worked out at 90%.
